Reference: the DeepSol protein solubility set

Assay: soluble on expression in E. coli; label from the status in PepcDB or PDB records

| Sequence | soluble on expression in E. coli |
| --- | --- |
| MSLQTRPILVVGATGKTGSRVAAKLEAKGAAVRRGSRHAEIPFDWESPATWAPALSGVSRAYVTYFPDLAFPGAVEKLEAFTKVAAASGLDQIVLLSGRGEHHARLGEKVVETSGIPFTIVRAAWFAQNFSEGYLRDPVVAGVLPMPGGDIAEPIIDIDDIADVVVAALSEDGHAGQLYEVTGPRLMTFAEMAKVLSTATGRPIRHLPISFEDFHANVAAAGGEFVADVFTAIARETLDGRNAYVSDGVERALGRKPRDFAAFAAAAASQGLWTAAEGHHHHHH | soluble |
| MGHHHHHHSHSIKPSTNLVFAKVLEKTRHPNANHLNLVKVKANQKVYEIVCGANNFSVHNWVVLAKLNAELANGLKITPRELRGYVSNGMLCAYSEINPQATSFLTSTDLDGILVLDDNYDHYKTPNQIFNLDDVILDLSIPSNRNDLNGYFWIAKELCAYFDFEYVVDATINHRPHKEIIDVRI | not soluble |
| MWHIFERFVNEYERWFLVHRFAYLSELQAVKCLLPEGRGVEIGVGTGRFAVPLKIKIGVEPSERMAEIARKRGVFVLKGTAENLPLKDESFDFALMVTTICFVDDPERALKEAYRILKKGGYLIVGIVDRESFLGREYEKNKEKSVFYKNARFFSTEELMDLMRKAGFEEFKVVQTLFKHPSELSEIEPVKEGYGEGAFVVIRGTKK | soluble |
| MGSDKIHHHHHHMAKADLDKDPFDVASMFDDVGKNYDLTNTVLSFGQDRVWRKRTRQRLDLKPGEKVLDLAAGTAVSTVELAKSGAFCVACDFSQGMLAAGKDRDVSKVVGDGMQLPFADNSFDAVTISYGLRNIHDFRAGLKEMARVTKPGGRLTVAEFSTPVIPVFGTVYKEYLMRLLPQAARAVSSNPEAYIYLADSIRAWPSQAELAREINQNGWSDCGWQNLTFGIVALHSAIKPEN | not soluble |
| MSLDLEFHGVMRFYFQDKAAGNFATKCIRVSSTATTQDVIETLAEKFRPDMRMLSSPKYSLYEVHVSGERRLDIDEKPLVVQLNWNKDDREGRFVLKNENDAIPPKAQSNGPEKQEKEGVIQNFKRTLSKKEKKEKKKREKEALRQASDKDDRPFQGEDVENSRLAAEVYKDMPETSFTRTISNPEVVMKRRRQQKLEKRMQEFRSSDGRPDSGGTLRIYADSLKPNIPYKTILLSTTDPADFAVAEALEKYGLEKENPKDYCIARVMLPPGAQHSDEKGAKEIILDDDECPLQIFREWPSDKGILVFQLKRRPPDHIPKKTKKHLEGKTPKGKERADGSGYGSTLPPEKLPYLVELSPGRRNHFAYYNYHTYEDGSDSRDKPKLYRLQLSVTEVGTEKLDDNSIQLFGPGIQPHHCDLTNMDGVVTVTPRSMDAETYVEGQRISETTMLQSGMKVQFGASHVFKFVDPSQDHALAKRSVDGGLMVKGPRHKPGIVQETTFDLGGDIHSGTALPTSKSTTRLDSDRVSSASSTAERGMVKPMIRVEQQPDYRRQESRTQDASGPELILPASIEFRESSEDSFLSAIINYTNSSTVHFKLSPTYVLYMACRYVLSNQYRPDISPTERTHKVIAVVNKMVSMMEGVIQKQKNIAGALAFWMANASELLNFIKQDRDLSRITLDAQDVLAHLVQMAFKYLVHCLQSELNNYMPAFLDDPEENSLQRPKIDDVLHTLTGAMSLLRRCRVNAALTIQLFSQLFHFINMWLFNRLVTDPDSGLCSHYWGAIIRQQLGHIEAWAEKQGLELAADCHLSRIVQATTLLTMDKYAPDDIPNINSTCFKLNSLQLQALLQNYHCAPDEPFIPTDLIENVVTVAENTADELARSDGREVQLEEDPDLQLPFLLPEDGYSCDVVRNIPNGLQEFLDPLCQRGFCRLIPHTRSPGTWTIYFEGADYESHLLREGHHHHHH | soluble |
| MSSLTKQFVITQSVKNVSSIADGGEHVTPSEIHYGTEWYMRIKRDNGFMSFGLYCPMTGKTTNWSIVADIRVELMPLTGMWKSVECECKIAKSPSLISEVLRSTIMPWGRMMTNYVVDDALMIEVFVTIKSMTGFERPYNLRSFDESMEEFSDVVLLVGEKKFYVLRKYLAAQSKYFKALLLGSFEEGKSSEVTLTSIDPNDFQFFLEVLYGDSAINDLTVEGILHIADMYDTPMVVRKCEEFLIKGTKLPAKKKLQMAFRYKMENFMVLFFGNIQRKVFNFFRETTTLN | not soluble |
| MGSDKIHHHHHHMEVKELERDKNRVVLEYVFGAEEIAQAEDKAVRYLNQRVEIPGFRKGRIPKNVLKMKLGEEFQEYTLDFLMDLIPDTLKDRKLILSPIVTERELKDVTARVVVEVHEEPEVRIGDISKIEVEKVDEEKVLEKYVERRIEDLRESHALLEPKEGPAEAGDLVRVNMEVYNEEGKKLTSREYEYVISEDEDRPFVKDLVGKKKGDVVEIEREYEGKKYTYKLEVEEVYKRTLPEIGDELAKSVNNEFETLEQLKESLKKEGKEIYDVEMKESMREQLLEKLPEIVEIEISDRTLEILVNEAINRLKREGRYEQIVSSYESEEKFREELKERILDDIKRDRVIEVLAQEKGISVNDEELEKEAEELAPFWGISPDRAKSLVKARQDLREELRWAILKRKVLDLLLQEVKVKVVEPKGEGDDSEGKEDN | not soluble |
| MSLELAQQWTQQRQALGERDDAMAALKTLDSSYAATTVFPPKGEVSLHERAGLYQGNEVNPPLAAAYRRELETQLLPRVARMLEAQIRGNMQNRERLLNSLRAYLMLNLRERRENGWLKDWVATDWSQRYAGNGTVQNGLNTHFARLLEQPFSYPLNETLVAQARQVLRSESLANVVYRVLREQARSLPEYRFGQHLGPQAGLFVGTDYVIPGFYTQQGYQQYFVVQGASLVNDILRDNWVLGEGSGISDMDLRRLMVELEQLYFRDYANFWSEAVGRLGLLPFNDAGEGADQVSGLLAANSPILQLLLEVRENTRFPVLAESAEALAEASDKAAEKGGKLGKAAAAAAGKARDALAKNLPDTAKKSLQRRFEPLHRLLDDNNGPAADLTPLLQALNELQLQLAGLARASQPEQEGHHHHHH | soluble |
| PSEHLEHLFQYIVNDDKTYMKKLVSGHGIVDPTNPYEEFKLTKLQAAIQRKIGYTFDPKSERLLPPTLTELEKGNAVLAHHLIQSFSPEDDLTPEKIHEIGYNTVMELTGGEYEFVIATHVDKEHLHNHIIFSSTNLKTGKAFRWQKGTKKVFEQISDKIAAKEGAKIIEKSPKQTHTKYTKWQTESIYKQKIKSRLDFLLEQSSSINDFLEKAEALNLSADFSNKWTTYRLLDEPQIKNTRSRSLSKSDPTRYNYEKIIERLKENKNVL | not soluble |
| SRQWSQTLCEMSESEDDDIPQLSSHTLAALQEFYAEQKQSVNPRGDDKYNVGVIEENWQLSQFWYSQDTALRLAREAIDAAGEGGRIACVSAPSVYQKLRELCREDSSVYIFEYDRRFAIYGDEFIFYDYNHPLELPERIAAHSFDLVVADPPYLSEECLRKTSETIQFLTRGKILLCTGAIMEEQAAQLLGVKMCKFIPEHSRNLANEFRCYTNYDSGLDCEA | soluble |
| MNAPPAWAADILKKASSQALDLYNKGIGGNVYQGERIAGLGTMTKNALTGLEQAVGQYNNPALTQWFNAPTQSAHNLLGMAKGDWIGNNSKFNAALQSALSKTSDAINQSMAGAGRYGSGAHTGVLADELGALATNAAAQQYNQDIHNMMNANQMIDRSLYDQVNAANNYYQGQSNAQSNALKGGLIQDVNRQNALDAERQKWTEQDNQAWNQLERLLRVGTQAAGNYGTTSGKSTTMPSVTKDPLRDAQQVLGLMGGILGLCDVRAKENIVPVGEKNGYPLYVFNYKGDPQRYCGVLAQEVLRLKPEAVFVNAKTKLLHVDYNKIGLKMKKISEPKKRIATFFSALFARFPFLQKGYLLLEHHHHHH | soluble |
| MELATTQSVLMQIQPTIQRFARMLASVLQLEVEIVDENLCRVAGTGAYGKFLGRQLSGNSRLLRHVLETKTEKVVTQSRFDPLCEGCDSKENCREKAFLGTPVILQDRCVGVISLIAVTHEQQEHISDNLREFSDYVRHISTIFVSKLLEDQGPGDNISKIFATMIDNMDQGVLVVDDENRVQFVNQTALKTLGVVQNNIIGKPIRFRPLTFESNFTHGHMQHIVSWDDKSELIIGQLHNIQGRQLFLMAFHQSHTSFSVANAPDEPHIEQLVGECRVMRQLKRLISRIAPSPSSVMVVGESGTGKEVVARAIHKLSGRRNKPFIAINCAAIPEQLLESELFGYVKGAFTGASANGKTGLIQAANTGTLFLDEIGDMPLMLQAKLLRAIEAREILPIGASSPIQVDIRIISATNQNLAQFIAEGKFREDLFYRLNVIPITLPPLRERQEDIELLVHYFLHLHTRRLGSVYPGIAPDVVEILRKHRWPGNLRELSNLMEYLVNVVPSGEVIDSTLLPPNLLNNGTTEQSDVTEVSEAHLSLDDAGGTALEEMEKQMIREALSRHNSKKQVADELGIGIATLYRKIKKYELLNT | not soluble |
| MSLPSERELGKELEVSRLTVRKAIQELEQKGILYKIQGKGTFVNDRKKAGEHGNKIGVISHLYKGVFMEILEGIEEGLESESYEYLLRNSQNDYKKEENIIQAMKEEGVSGFIISPVEDQKDSNVIFNLKAEGYPIVLIDRKLNYCETDCVLSDNIDGGFKATEYLIKLGHSRIAFLTYEFRKTSSVRDRIKGYRYALKLNQLELDERLLFSYNKDLSREEKNKILYNFIKENKPTAIIGVHNDVALDVVKMCRANNISIPEDISIICFDNTDIVRHLEVPLTTLVQDARKIGYDAAKLIVKKINSQEETGIMNQIYHPVKLIERNSCKSILQKNEGHHHHHH | soluble |
| MVFKPHRINCRDFTFKIELKEKKILRGRAMLDKIDRKLLALLQQDCTLSLQALAEAVNLTTTPCWKRLKRLEDDGILIGKVALLDPEKIGLGLTAFVLIKTQHHSSEWYCRFVTVVTEMPEVLGVWRMAGEYDYLMRVQVADMKRYDEFYKRLVNSVPGLSDVTSSFAMEQIKYTTSLPIE | not soluble |
| MGSDKIHHHHHHMFRILTINPGSTSTKLSIFEDERMVKMQNFSHSPDELGRFQKILDQLEFREKIARQFVEETGYSLSSFSAFVSRGGLLDPIPGGVYLVDGLMIKTLKSGKNGEHASNLGAIIAHRFSSETGVPAYVVDPVVVDEMEDVARVSGHPNYQRKSIFHALNQKTVAKEVARMMNKRYEEMNLVVAHMGGGISIAAHRKGRVIDVNNALDGDGPFTPERSGTLPLTQLVDLCFSGKFTYEEMKKRIVGNGGLVAYLGTSDAREVVRRIKQGDEWAKRVYRAMAYQIAKWIGKMAAVLKGEVDFIVLTGGLAHEKEFLVPWITKRVSFIAPVLVFPGSNEEKALALSALRVLRGEEKPKNYSEESRRWRERYDSYLDGILR | not soluble |
| MMPFEAVIGLEVHVQLNTKTKIFCSCSTSFGESPNSNTCPVCLGLPGALPVLNKEVVKKAIQLGTAIEANINQYSIFARKNYFYPDLPKAYQISQFEVPIVSDGKLEIDTKEGAKIVRIERAHMEEDAGKNIHEGSYSLVDLNRACTPLLEIVSKPDMRNSEEAIAYLKKLHAIVRFIGISDANMQEGNFRCDANVSIRPKGDEKLYTRVEIKNLNSFRFIAKAIEYEIERQSAAWENGRYNEEVVQETRLFDTHKGITLSMRNKEESADYRYFKDPDLYPVFIDEKLLKEAQKINELPSAKKIRYMKDFNLKEDDANLLVSDPLLAQYFESMLHLGVKAKTSVTWLCVELLGRLKAEITLENCGVSTHMLGALAKRIDEGKISGKSAKDVLDKLLEEQGGDVDALIEQMGLSQVNDTEAIVKVIEEVLKNNADKVLEYKSGKDKLFGFFVGQAMKNLKGANPSVVNAILKEKLG | not soluble |
| SVRRKSCIVKEMEKMKNKREEKRAQNSELRIKRAQEYDSSFPNWEFARMIKEFRVTMECSPLTVTDPIEEHRICVCVRKRPLNKQELAKKEIDVISVPSKCLLLVHEPKLKVDLTKYLENQAFCFDFAFDETASNEVVYRFTARPLVQTIFEGGKATCFAYGQTGSGKTHTMGGDLSGKSQNASKGIYAMASRDVFLLKNQPRYRNLNLEVYVTFFEIYNGKVFDLLNKKAKLRVLEDSRQQVQVVGLQEYLVTCADDVIKMINMGSACRTSGQTFANSNSSRSHACFQILLRTKGRLHGKFSLVDLAGNERGADTSSADRQTRMEGAEINKSLLALKECIRALGQNKAHTPFRESKLTQVLRDSFIGENSRTCMIAMISPGISSCEYTLNTLRYADRVKELSHHHHHHH | soluble |
